Measured values: US20220306710A1 (YEDA RESEARCH AND DEVELOPMENT, published 2022)
Where no end group is shown, it is not given here.

T1: Tau1 peptide labelled with rhodamine (human, also: rhodamine isothiocyanate label, site not given here)
T1 construct: also called Tau1R; Tau-1R
T1 peptide: GLGDRKDQGGYTMHQD

T2: Tau2 peptide labelled with rhodamine (human, also: rhodamine isothiocyanate label, site not given here)
T2 construct: also called Tau2R; Tau-2R
T2 peptide: KPGGGQVEVKSEKLDFK


What was measured:
[1] = target: T1, Tau1 peptide labelled with rhodamine; experiment: dot blot of mixed labelled peptides on nitrocellulose
Source text: (§1) FIGS. 2A-B. Confirmation of APP and Tau peptide binding by visualization and ELISA. A) Visualization of APP and Tau peptide binding labelled by fluorescein (F) or rhodamine (R). Single labelled peptides were loaded on nitrocellulose membrane [upper row (F) and middle row (R)]. Mixtures were loaded (lower row) from left to right: APP1F+Tau1R, APP1F+Tau2R, APP2F+Tau1R and APP2F+Tau2R. Last sample was a control of APP2F+APP1R. […] B) Peptide inhibition of Tau and APP protein binding. An ELISA plate was coated with Tau protein overnight (ON) at 4° C. PBS, single peptides or their combinations were incubated ON at 4° C. as well. Next day, the plate was washed and blocked with PBS+3% BSA for two hours at RT. The plate was washed again with PBS. Single peptides or their combinations were added to the coated plate for four hours at RT. The plate was washed and APP protein was added to all wells for ON incubation at 4° C. The plate was then washed and anti Aß was added, to test the ability of the different peptides to affect APP protein binding to the Tau coated plate. The plate was developed with anti-mouse HRP (materials and methods section). Samples were in triplicates. Significance labelled as p≤0.05*, p≤0.008**.
(§2) All four candidate peptides were labelled with fluorescein. APP1, Tau1 and Tau2 were also labelled with rhodamine for visualization of peptide binding.

[2] = target: T2, Tau2 peptide labelled with rhodamine; experiment: as above
Source text: as §1, §2

| Binder | binding result [1] | binding result [2] |
| --- | --- | --- |
| HFQKAKERLEAKHRERMSQVMRE (also: fluorescein isothiocyanate label, site not given here, also called APP1F; App1F) [APP1 peptide labelled with fluorescein] | binds | binds |
| ATVIVITLVMLKKKQYTS (also: fluorescein isothiocyanate label, site not given here, also called APP2F) [APP2 peptide labelled with fluorescein] | no binding | no binding |
